Data on 1 molecule can be found in patent US20190225675A1 (TUFTS UNIVERSITY, published 2019).

Usually EC50 (read off the curve) stands for the midpoint of the concentration-response curve. Low readings indicate an effect from little substance, high ones a need for much substance.

Assay [1] concerns the target Clostridium difficile toxin B (TcdB) (Clostridium difficile, UniProt P18177 2-2366).
The target in assay [2] is T1, Clostridium difficile toxin A (TcdA) (Clostridium difficile, UniProt P16154 1-2710).
T1 construct: mature
T1 sequence (P16154 whole entry): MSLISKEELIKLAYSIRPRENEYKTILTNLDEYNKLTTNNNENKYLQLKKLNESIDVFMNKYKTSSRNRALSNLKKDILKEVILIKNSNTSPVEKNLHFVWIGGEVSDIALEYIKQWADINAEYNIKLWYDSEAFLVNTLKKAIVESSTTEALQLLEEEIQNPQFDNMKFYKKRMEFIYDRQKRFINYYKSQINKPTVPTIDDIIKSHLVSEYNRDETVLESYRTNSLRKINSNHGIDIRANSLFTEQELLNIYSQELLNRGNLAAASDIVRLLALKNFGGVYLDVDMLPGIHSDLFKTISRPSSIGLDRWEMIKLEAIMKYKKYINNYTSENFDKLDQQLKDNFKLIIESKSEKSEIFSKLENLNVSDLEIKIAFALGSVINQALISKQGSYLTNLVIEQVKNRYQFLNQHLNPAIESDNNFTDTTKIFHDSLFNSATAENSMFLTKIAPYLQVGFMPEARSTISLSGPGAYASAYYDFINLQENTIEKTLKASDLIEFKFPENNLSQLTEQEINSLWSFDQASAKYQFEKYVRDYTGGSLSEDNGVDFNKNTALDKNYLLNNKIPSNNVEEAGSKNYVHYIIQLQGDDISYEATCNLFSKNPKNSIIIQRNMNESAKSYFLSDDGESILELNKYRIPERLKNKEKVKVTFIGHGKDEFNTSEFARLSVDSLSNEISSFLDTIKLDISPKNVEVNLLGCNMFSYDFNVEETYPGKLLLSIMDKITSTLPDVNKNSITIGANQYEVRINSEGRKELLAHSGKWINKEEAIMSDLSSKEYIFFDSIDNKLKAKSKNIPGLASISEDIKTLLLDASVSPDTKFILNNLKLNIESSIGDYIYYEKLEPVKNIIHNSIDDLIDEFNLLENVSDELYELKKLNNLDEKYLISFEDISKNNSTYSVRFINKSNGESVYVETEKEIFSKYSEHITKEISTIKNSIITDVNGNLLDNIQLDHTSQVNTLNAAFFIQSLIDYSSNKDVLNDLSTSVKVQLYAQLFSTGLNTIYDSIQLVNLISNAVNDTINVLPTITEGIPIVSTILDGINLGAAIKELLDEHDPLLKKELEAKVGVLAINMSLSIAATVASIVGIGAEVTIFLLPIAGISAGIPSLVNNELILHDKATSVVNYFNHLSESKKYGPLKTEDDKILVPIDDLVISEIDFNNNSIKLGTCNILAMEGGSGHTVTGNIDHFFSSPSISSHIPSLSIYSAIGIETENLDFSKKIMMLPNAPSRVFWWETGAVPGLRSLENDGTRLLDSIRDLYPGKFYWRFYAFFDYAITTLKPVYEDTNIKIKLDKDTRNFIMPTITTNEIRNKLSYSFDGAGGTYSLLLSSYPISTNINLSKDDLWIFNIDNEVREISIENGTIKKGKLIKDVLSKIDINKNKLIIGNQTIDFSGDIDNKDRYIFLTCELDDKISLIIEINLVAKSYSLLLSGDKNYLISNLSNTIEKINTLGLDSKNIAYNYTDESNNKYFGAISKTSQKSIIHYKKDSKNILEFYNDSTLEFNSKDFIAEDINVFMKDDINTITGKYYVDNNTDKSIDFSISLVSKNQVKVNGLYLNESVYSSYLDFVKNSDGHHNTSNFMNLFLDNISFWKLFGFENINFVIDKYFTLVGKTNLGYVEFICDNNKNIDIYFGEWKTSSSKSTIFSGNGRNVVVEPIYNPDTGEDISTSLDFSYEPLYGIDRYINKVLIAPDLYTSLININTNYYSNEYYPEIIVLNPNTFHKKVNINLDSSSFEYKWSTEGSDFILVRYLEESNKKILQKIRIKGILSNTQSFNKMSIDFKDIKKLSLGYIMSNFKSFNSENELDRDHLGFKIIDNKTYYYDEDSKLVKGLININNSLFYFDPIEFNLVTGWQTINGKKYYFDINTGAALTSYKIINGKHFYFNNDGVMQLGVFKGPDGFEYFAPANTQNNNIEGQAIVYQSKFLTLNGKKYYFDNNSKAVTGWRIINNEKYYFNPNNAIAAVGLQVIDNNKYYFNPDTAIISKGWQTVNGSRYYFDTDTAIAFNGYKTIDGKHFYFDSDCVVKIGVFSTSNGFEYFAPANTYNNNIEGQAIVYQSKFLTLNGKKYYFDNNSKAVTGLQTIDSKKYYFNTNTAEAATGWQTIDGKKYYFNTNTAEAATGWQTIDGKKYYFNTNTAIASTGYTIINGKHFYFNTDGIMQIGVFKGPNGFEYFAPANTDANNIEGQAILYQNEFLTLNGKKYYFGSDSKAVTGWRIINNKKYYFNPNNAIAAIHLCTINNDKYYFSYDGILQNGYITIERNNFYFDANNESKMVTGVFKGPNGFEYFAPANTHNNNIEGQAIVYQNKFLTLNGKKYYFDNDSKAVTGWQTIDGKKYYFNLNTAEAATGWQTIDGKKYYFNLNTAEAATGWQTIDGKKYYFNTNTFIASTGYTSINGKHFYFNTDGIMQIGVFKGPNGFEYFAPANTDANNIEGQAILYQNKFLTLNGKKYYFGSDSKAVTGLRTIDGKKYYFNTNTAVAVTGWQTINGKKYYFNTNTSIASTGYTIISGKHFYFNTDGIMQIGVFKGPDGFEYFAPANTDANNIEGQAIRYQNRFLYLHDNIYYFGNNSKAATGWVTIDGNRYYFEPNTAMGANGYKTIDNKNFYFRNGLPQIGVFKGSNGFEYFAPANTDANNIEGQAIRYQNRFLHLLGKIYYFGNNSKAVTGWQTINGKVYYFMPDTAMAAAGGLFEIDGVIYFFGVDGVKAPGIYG
Briefly: ELISA on plates coated with TcdA, HRP-conjugated detection antibody, A450. (ELISA stands for enzyme-linked immunosorbent assay.)

Chain of Clostridium difficile toxin B (TcdB) (P18177 2-2366): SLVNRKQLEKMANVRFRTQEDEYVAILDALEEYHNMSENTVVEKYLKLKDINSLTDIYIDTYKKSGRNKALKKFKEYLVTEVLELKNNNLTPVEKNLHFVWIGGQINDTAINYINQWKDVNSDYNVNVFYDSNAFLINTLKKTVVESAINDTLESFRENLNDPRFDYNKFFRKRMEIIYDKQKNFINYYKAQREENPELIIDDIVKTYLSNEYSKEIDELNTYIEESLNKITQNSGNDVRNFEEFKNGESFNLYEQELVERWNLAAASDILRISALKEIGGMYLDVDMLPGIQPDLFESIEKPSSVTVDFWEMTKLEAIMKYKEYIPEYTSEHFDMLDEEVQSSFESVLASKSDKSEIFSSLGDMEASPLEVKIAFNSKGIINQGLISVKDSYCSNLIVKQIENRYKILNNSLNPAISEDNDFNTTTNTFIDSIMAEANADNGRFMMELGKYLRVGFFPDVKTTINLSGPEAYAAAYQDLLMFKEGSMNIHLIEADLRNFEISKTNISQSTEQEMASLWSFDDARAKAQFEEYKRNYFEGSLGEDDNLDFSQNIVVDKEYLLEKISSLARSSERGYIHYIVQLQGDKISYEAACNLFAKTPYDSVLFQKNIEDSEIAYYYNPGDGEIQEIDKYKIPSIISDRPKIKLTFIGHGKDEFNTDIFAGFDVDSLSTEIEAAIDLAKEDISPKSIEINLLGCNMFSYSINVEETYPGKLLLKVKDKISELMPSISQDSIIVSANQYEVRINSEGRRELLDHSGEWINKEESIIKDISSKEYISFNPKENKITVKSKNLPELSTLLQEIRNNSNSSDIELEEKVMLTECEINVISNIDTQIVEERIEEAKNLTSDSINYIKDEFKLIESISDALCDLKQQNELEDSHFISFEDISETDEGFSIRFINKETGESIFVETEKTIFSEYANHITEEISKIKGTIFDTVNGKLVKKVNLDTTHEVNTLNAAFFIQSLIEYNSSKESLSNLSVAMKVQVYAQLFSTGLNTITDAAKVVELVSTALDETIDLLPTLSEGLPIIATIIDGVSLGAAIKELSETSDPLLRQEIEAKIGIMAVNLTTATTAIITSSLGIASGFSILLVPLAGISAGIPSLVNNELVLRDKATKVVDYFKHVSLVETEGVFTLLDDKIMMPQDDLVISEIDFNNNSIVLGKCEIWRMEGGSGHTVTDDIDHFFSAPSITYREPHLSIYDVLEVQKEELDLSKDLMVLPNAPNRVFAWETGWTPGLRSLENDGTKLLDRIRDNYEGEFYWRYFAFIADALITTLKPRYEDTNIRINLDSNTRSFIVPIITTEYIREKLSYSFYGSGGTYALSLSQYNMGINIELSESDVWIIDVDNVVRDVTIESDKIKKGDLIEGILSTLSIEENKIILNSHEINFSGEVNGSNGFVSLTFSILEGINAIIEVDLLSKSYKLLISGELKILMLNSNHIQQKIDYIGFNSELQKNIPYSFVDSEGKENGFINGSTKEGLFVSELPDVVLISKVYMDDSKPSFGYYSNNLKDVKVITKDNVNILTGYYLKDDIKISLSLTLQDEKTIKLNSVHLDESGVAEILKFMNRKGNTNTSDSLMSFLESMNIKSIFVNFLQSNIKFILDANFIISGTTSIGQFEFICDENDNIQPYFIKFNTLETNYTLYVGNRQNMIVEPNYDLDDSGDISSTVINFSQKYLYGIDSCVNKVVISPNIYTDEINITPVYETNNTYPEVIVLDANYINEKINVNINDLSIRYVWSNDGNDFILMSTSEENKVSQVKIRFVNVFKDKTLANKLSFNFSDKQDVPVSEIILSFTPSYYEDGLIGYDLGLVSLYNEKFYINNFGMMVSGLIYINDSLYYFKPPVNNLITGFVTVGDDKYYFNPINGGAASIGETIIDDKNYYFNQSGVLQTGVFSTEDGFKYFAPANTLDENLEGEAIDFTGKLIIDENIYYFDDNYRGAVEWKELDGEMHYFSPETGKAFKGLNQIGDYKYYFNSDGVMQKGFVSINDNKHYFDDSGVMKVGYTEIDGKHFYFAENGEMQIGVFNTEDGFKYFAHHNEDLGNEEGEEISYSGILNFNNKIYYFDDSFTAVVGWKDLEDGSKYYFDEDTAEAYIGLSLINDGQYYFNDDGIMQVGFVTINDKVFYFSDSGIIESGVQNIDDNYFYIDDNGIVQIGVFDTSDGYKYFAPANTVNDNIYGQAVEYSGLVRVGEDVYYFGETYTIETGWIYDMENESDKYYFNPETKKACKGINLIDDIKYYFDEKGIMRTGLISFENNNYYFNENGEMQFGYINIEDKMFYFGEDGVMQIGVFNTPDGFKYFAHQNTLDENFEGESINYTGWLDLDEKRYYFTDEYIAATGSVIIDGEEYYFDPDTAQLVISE

B1: VNA-TcdB (toxin B-binding heterodimer, 5D+E3) (other)
chain: QGVQSQLQLVESGGGLVQPGGSLRLSCEASGFTLDYYGIGWFRQPPGKEREAVSYISASARTILYADSVKGRFTISRDNAKNAVYLQMNSLKREDTAVYYCARRRFSASSVNRWLADDYDVWGRGTQVAVSSEPKTPKPQGGGGSGGGGSGGGGSQGVQSQVQLVESGGGLVQTGGSLRLSCASSGSIAGFETVTWSRQAPGKSLQWVASMTKTNNEIYSDSVKGRFIISRDNAKNTVYLQMNSLKPEDTGVYFCKGPELRGQGIQVTVSSEPKTPKPQ
With B1, the “EC50 (read off the curve)” value in assay [1] was ~0.3 nM. Further, in assay [2], the binding result is listed as “no binding (tested: 125 nM)”.
